Values quoted from earlier work as cited in PMC6716794.

How the values were obtained:
thrombin ABE I = thrombin ABE I (UniProt P00734); assay: NMR
thrombin ABE II = thrombin ABE II (UniProt P00734)
Thrombin (Homo sapiens) = Thrombin (Homo sapiens) (UniProt P00734)

PAR3GEL, sequence (O00254 39-374): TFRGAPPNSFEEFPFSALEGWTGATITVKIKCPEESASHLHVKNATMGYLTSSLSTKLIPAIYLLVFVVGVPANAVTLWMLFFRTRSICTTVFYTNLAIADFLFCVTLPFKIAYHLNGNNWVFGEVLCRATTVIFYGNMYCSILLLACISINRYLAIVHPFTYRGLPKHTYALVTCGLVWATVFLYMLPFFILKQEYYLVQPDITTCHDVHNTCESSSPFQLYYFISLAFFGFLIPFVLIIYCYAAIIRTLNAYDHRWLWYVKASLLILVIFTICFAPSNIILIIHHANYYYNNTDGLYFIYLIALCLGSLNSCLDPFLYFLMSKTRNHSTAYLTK

For PAR3GEL (from UniProt O00254), which Kd (thrombin ABE I) is on record?
The Kd was 47000 nM.

For GpIbα 269-286 (from UniProt P07359), which Kd (thrombin ABE II) is on record?
Its Kd is 5.9 nM.

What about the Kd (Thrombin (Homo sapiens)) of the same substance?
Its Kd is 5.9 nM.
